Source: JP2016528193A (dated 2016)

Key:
ヒトPCSK9(野生型) [1] = target: ヒトPCSK9(野生型) (human); assay: Biacore at pH 6.0 (HBS-P with 0.01 % BSA), fitted from competition curves, n=1
ヒトPCSK9(野生型) [2] = target: ヒトPCSK9(野生型) (human); assay: KinExA solution equilibrium, PCSK9-coated beads

| Kd (ヒトPCSK9(野生型) [1]) [nM] | Kd (ヒトPCSK9(野生型) [2]) [pM] | Binder |
| --- | --- | --- |
| 0.0125 | 3 | 31H4 (antibody, V domains shown) VH: EVQLVESGGGLVKPGGSLRLSCAASGFTFSSYSMNWVRQAPGKGLEWVSSISSSSSYISYADSVKGRFTISRDNAKNSLYLQMNSLRAEDTAVYFCARDYDFWSAYYDAFDVWGQGTMVTVSS VL: QSVLTQPPSVSGAPGQRVTISCTGSSSNIGAGYDVHWYQQLPGTAPKLLISGNSNRPSGVPDRFSGSKSGTSASLAITGLQAEDEADYYCQSYDSSLSGSVFGGGTKLTVLQ |
| 0.029 | 15 | 16F12 (antibody, V domains shown) VH: QVHLVESGGGVVQPGRSLRLSCAASGFTFNSFGMHWVRQAPGKGLEWVALIWSDGSDEYYADSVKGRFTISRDNSKNTLYLQMNSLRAEDTAVYYCARAIAALYYYYGMDVWGQGTTVTVSS VL: QSVLTQPPSVSAAPGQKVTISCSGSSSNIGNNFVSWYQQLPGTAPKLLIYDYNKRPSGIPDRFSGSKSGTSATLGITGLQTGDEADYYCGTWDSSLSAYVFGTGTRVTVLQ |
